The chains are these.
B1: human connexin36 (Cx36) (other, UniProt Q9UKL4 1-321, looked up)
chain: MGEWTILERLLEAAVQQHSTMIGRILLTVVVIFRILIVAIVGETVYDDEQTMFVCNTLQPGCNQACYDRAFPISHIRYWVFQIIMVCTPSLCFITYSVHQSAKQRERRYSTVFLALDRDPPESIGGPGGTGGGGSGGGKREDKKLQNAIVNGVLQNTENTSKETEPDCLEVKELTPHPSGLRTASKSKLRRQEGISRFYIIQVVFRNALEIGFLVGQYFLYGFSVPGLYECNRYPCIKEVECYVSRPTEKTVFLVFMFAVSGICVVLNLAELNHLGWRKIKLAVRGAQAKRKSIYEIRNKDLPRVSVPNFGRTQSSDSAYV
notes: whole, on cells; Hemichannel expressed in HEK 293FT cells for FETCH; also called GJD2; not shown: C-terminal fluorescent protein fusion (mEmerald or RFP670 in FETCH)

For one series, the target named is T1, human connexin45 (Cx45) (human, UniProt P36383 1-396).
T1 construct: whole, on cells; Hemichannel expressed in HEK 293FT cells for FETCH; non-docking benchmark partner of Cx36; also called GJC1; not shown: C-terminal fluorescent protein fusion (mEmerald or RFP670 in FETCH)
Briefly: FETCH (flow cytometry of co-plated HEK 293FT cells), benchmark pair. Here is the method:
(§1) Complete FETCH methodology is outlined in Ransey et. al. 2021 (Ransey E, et al. (2021) BioRxiv). Briefly, replica multi-well plates with HEK 293FT cells were transfected with either of the two connexin proteins being evaluated for docking. Following a transfection incubation period, experimental counterparts were combined, replated, and further incubated for about 20 hr to about 24 hrs, allowing cells to make contacts and potentially generate connexosomes. Co-plated samples were trypsinized, fixed in suspension and analyzed via flow cytometry. Flow cytometry data was processed with two selection gates prior to their fluorescence evaluation. First, putative HEK cells were identified by evaluating sample forward vs. side scatter area. Next, single cells were identified as the putative cells that maintained a linear correlation of forward scatter height to forward scatter area. Finally, the dual fluorescence (mEmerald vs. RFP670) profiles of each sample was generated, and the FETCH score was defined as the proportion of dual-labeled fluorescent cells that develop in a co-plated sample.
For screening analysis, five FETCH replicates were obtained for each condition (mutation). […] To quantitatively determine whether a connexin pair docked, FETCH scores were determined for the dual fluorescence of cells under conditions where docking was not anticipated. […]

Series [1] deals with T2, human connexin43 (Cx43) (human, UniProt P17302 2-382).
T2 construct: whole, on cells; Hemichannel expressed in HEK 293FT cells for FETCH; also called GJA1; not shown: C-terminal fluorescent protein fusion (mEmerald or RFP670 in FETCH)
The experiment in a line: heterotypic FETCH. Here is the method:
as §1

The series “homotypic FETCH screen” deals with the molecule itself. Briefly: homotypic FETCH screen. Here is the method:
as §1
(§2) For screening analysis, five FETCH replicates were obtained for each condition (mutation). These scores were benchmarked against scores for Cx36 and Cx45 (FETCH=1.2±0.1%, n=54 replicates). To quantitatively determine whether a connexin pair docked, FETCH scores were determined for the dual fluorescence of cells under conditions where docking was not anticipated. These conditions included pairs of connexins previously established to not show docking: (i) Cx36 and Cx45 (FETCH=0.7±0.0%, n=59 replicates), (ii) homotypic Cx23 (FETCH=0.9±0.4%, n=6 previously collected replicates (Ransey E, et al. (2021) BioRxiv), and (iii) Cx36 and Cx43 (FETCH=1.2±0.2%, n=10 previously collected replicates (Ransey E, et al. (2021) BioRxiv), and under conditions for which cells were transfected with cytoplasmic fluorophores rather than tagged connexins (FETCH=4.4±0.6%, n=17 previously collected replicates (Ransey E, et al. (2021) BioRxiv).

Series [2] deals with the molecule itself. Briefly: FETCH (flow cytometry, % dual-labelled HEK 293FT cells), homotypic. Here is the method:
as §1

The series “human connexin36 (Cx36)” concerns the target B1. The experiment in a line: FETCH (flow cytometry, % dual-labelled HEK 293FT cells), heterotypic. Here is the method:
as §1

Series [3] concerns the target T2, human connexin43 (Cx43). Briefly: FETCH (flow cytometry, % dual-labelled HEK 293FT cells), heterotypic, n=6. Here is the method: as §1
Series [4] addresses T3, Cx35E224H (Morone americana Cx35 mutant E224H) (Morone americana).
T3 construct: Extracellular loop mutant of the screening library; not shown: C-terminal fluorescent protein fusion (mEmerald or RFP670 in FETCH)
T3 chain: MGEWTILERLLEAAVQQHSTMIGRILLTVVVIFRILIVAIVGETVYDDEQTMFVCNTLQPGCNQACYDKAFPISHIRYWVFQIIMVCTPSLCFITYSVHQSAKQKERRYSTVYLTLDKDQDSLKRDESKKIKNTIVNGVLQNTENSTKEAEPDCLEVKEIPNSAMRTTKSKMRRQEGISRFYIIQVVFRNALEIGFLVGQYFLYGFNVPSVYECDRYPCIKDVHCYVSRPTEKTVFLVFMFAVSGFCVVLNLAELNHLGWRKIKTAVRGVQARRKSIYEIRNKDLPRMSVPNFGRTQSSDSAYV
The experiment in a line: heterotypic FETCH; score higher than for the wild type Cx34.7WT/Cx35WT pair. Here is the method: as §1, §2

Series [5] has as its target T4, Cx35E224K (Morone americana Cx35 mutant E224K) (Morone americana).
T4 construct: Extracellular loop mutant of the screening library; not shown: C-terminal fluorescent protein fusion (mEmerald or RFP670 in FETCH)
T4 chain: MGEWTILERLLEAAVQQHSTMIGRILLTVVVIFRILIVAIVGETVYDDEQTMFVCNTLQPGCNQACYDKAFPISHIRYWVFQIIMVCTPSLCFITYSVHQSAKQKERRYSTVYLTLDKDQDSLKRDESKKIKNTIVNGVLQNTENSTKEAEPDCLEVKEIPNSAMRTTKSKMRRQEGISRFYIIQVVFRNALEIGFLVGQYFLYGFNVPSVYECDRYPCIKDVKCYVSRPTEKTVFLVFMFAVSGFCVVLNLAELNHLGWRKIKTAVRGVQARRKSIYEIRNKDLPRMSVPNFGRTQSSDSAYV
The description is as above. Here is the method:
as §1, §2

Series [6] has as its target T5, Cx35E224R (Morone americana Cx35 mutant E224R) (Morone americana).
T5 construct: Extracellular loop mutant of the screening library; not shown: C-terminal fluorescent protein fusion (mEmerald or RFP670 in FETCH)
T5 chain: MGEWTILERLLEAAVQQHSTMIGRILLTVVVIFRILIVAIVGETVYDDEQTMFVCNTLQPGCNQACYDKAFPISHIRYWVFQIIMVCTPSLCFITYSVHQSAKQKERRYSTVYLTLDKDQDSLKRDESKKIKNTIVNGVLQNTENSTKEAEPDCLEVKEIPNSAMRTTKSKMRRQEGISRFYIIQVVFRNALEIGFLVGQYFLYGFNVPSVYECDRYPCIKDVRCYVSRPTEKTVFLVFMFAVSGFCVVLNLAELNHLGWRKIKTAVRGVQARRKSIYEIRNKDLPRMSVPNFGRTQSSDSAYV
Described as above. Here is the method:
as §1, §2

From US20250186620A1 (DUKE UNIVERSITY, published 2025) come the findings set out here.

T2 sequence (P17302 2-382): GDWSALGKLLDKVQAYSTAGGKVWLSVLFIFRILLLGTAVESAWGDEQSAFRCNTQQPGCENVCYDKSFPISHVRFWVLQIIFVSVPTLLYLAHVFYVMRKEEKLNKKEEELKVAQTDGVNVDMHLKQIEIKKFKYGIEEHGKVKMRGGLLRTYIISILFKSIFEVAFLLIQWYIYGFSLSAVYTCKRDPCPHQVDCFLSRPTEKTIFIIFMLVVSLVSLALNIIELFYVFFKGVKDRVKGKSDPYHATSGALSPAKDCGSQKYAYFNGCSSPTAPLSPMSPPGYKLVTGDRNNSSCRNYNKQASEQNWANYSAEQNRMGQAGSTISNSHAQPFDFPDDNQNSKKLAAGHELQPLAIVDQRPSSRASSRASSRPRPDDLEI
T1 sequence (P36383 whole entry, the tested form may be a part): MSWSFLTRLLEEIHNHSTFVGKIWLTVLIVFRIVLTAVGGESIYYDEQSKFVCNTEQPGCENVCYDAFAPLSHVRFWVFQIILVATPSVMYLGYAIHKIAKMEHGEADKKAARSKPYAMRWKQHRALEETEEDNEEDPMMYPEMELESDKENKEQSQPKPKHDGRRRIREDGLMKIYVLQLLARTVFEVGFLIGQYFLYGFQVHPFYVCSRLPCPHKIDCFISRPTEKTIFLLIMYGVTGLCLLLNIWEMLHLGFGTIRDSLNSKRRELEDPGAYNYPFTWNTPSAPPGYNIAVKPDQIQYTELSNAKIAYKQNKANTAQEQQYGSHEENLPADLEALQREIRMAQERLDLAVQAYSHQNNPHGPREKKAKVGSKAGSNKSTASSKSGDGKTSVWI

Take B1: in the series with human connexin45 (Cx45), the binding result is “no binding”.

B2: Cx34.7K222Q (Morone americana Cx34.7 mutant K222Q) (other)
chain: MGEWTILERLLEAAVQQHSTMIGRILLTVVVIFRILIVAIVGETVYEDEQAMFICNTLQPGCNQACYDKAFPISHIRYWVFQIILVCTPSLCFITYSVHQSAKQKDRRYSFLYPIMERDYGGRDGARKLRNINGILVQHGGDGGGGKEEPDCLEVKEIPNAPRGLTHGKSSKVRRQEGISRFYIIQVVFRNALEIGFLAGQYFLYGFSVPGIFECDRYPCLQEVECYVSRPTEKTVFLVFMFAVSGICVVLNLAELNHLGWRKIKAAIRGVQARRKSICEIRKKDMAHLSQPPNLGRTQSSESAYV
notes: Extracellular loop mutant of the screening library; not shown: C-terminal fluorescent protein fusion (mEmerald or RFP670 in FETCH)
For B2, the binding result in the series with human connexin43 (Cx43) [1] is given as “no binding”; in the series “homotypic FETCH screen”, “no binding”; in series [4], “binds”; in series [5] it was “binds”; in series [6], “binds”. Further, the values for the FETCH score (in series [2]; with human connexin36 (Cx36); with human connexin43 (Cx43) [3]) were 0.4%, 22.8% and 1.3%, respectively.
